From US20110076272A1, “THERAPEUTIC METHODS AND COMPOSITIONS” (priority 2009, published 2011) come the findings set out here.

Data set [1] can be described thus: Pilot repeat-dose studies in cynomolgus monkeys. The following applies: repeat dosing at 100 mg/kg. It counts as in vivo.
In data set [2] the test system is purified recombinant human LOXL2. The data set is described as follows: Amplex Red assay of LOXL2 enzymatic activity. In kind it is biochemical. How it is done: A mouse anti-human LOXL2 antibody (AB0023) was obtained by immunization with full-length LOXL2 protein and purified by SEC-HPLC (Tosoh TSKGEL G3000SWXL 7.8×300). Analytical size exclusion chromatography was used to assess antibody stability and purity. Purified AB0023 was run on SDS-PAGE Coomassie (Invitrogen BT 4-12% Gels) reducing and non-reducing gels to assess purity. Potency was examined by ELISA to determine Kd, and effect on LOXL2 enzymatic activity was determined using an Amplex Red Assay (Molecular Probes/Invitrogen, Carlsbad, Calif.). Antibody concentration was measured by absorbance at 280 nm using an Extinction Coefficient Abs 0.1% of 1.4. Identity was assayed by isoelectric focusing (Invitrogen pH 3-10 IEF Gels). For safety analysis, endotoxin levels were measured at a sensitivity range of 0.01-1 EU/ml (Charles River EndoSafe PTS).
purified recombinant human LOXL2, sequence (Q9Y4K0 318-774 limits assumed): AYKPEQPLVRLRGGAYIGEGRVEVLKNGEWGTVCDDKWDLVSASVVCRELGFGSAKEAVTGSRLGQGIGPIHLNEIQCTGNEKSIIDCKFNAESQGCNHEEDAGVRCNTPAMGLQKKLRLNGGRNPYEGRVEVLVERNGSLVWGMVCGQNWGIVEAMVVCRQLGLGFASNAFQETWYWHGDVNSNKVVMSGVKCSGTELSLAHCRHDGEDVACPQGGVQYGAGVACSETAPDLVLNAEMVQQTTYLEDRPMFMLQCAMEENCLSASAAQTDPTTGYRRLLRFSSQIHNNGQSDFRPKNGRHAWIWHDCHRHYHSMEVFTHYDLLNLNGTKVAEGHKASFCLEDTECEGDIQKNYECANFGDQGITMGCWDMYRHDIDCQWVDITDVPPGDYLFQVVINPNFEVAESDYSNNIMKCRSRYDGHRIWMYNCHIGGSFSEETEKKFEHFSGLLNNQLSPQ

B1: AB0024: humanized anti-LOXL2 variant of AB0023; heavy chain variable region SEQ ID NO:3, light chain SEQ ID NO:4 (antibody, listed as Mus musculus, V domains shown)
VH: QVQLVQSGAEVKKPGASVKVSCKASGYAFTYYLIEWVRQAPGQGLEWIGVINPGSGGTNYNEKFKGRATITADKSTSTAYMELSSLRSEDTAVYFCARNWMNFDYWGQGTTVTVSS
VL: DIVMTQTPLSLSVTPGQPASISCRSSKSLLHSNGNTYLYWFLQKPGQSPQFLIYRMSNLASGVPDRFSGSGSGTDFTLKISRVEAEDVGVYYCMQHLEYPYTFGGGTKVEIK
modifications: Humanized heavy chain; Humanized light chain
With B1, the tolerability entry in data set [1] was “well tolerated”. Besides, in data set [2], the “mode of inhibition of LOXL2” value is given as “non-competitive allosteric inhibitors”.
